B1: SMOC2 (parent)
chain: DCAGSPQKPLCASDGRTFLSRCEF
B2: TRIM43 (parent)
chain: NNSWIRKNSTMVNSEDIFLLLCLK
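Note: lentivirally expressed fusions sorted by FACS into six bins by GFP to DsRed ratio, PSI derived from sequencing read proportions per bin multiplied by bin number.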

The variants in one data set derive from B1. Kind of data set: protein stability index of a GFP-peptide fusion (GPS, HEK-293T) (PSI 1-6); higher = more stable. Particulars: c terminus: a fixed tail appended.
On to DCAGSPQKPLCASDGRTFLSMCEF, for which the protein stability index came out at 1.68. On the same count and under the same terms, the same measure for DCAGSPQKPQCASDGRTFLSRCEF: 4.04. Same read-out and setting: with DCAGSPQKPMCASDGRTFLSRCEF the figure was 2.56; with DCAGSPQKPNCASDGRTFLSRCEF, 2.08; with DCAGSPQKPKCASDGRTFLSRCEF, 3.1. The same measure, in the same setting: with DCAGSPQKPLCASDGRCFLSRCEF the figure was 2.04. With DCAGSEQKPLCASDGRTFLSRCEF, the protein stability index turned out to be 3.15. On the same count and under the same terms, the same measure for DCAGSAQKPLCASDGRTFLSRCEF: 1.73; for DCKGSPQKPLCASDGRTFLSRCEF: 2.89; for DCAGSPQKPLCCSDGRTFLSRCEF: 1.59. Regarding DCAGSPQKPLCHSDGRTFLSRCEF, the protein stability index was found to be 2.18.

For the variant DCAGSPQKPLCASDGRTRLSRCEF, the protein stability index came out at 3.84.

For DCAGSPQKPLCASDGRTPLSRCEF, the protein stability index was 4.

For DCAGSPQKPLCASDGRTNLSRCEF, the protein stability index came to 4.26. The same measure, in the same setting: with DPAGSPQKPLCASDGRTFLSRCEF the figure was 3.4; with DCAGSPQKPLCASDGRTFLSRGEF, 3.96; with DCAGSPQKPLCASDGWTFLSRCEF, 1.72. Consider DCAGSPQKPLCASDGHTFLSRCEF, for which the protein stability index came out at 3.97. The same measure, in the same setting: with DCAGSPQYPLCASDGRTFLSRCEF the figure was 1.9; with DCAGKPQKPLCASDGRTFLSRCEF, 2.72. Regarding DCAGTPQKPLCASDGRTFLSRCEF, the protein stability index was 2.24. On to DCAGSPQKPLCASQGRTFLSRCEF, for which the protein stability index is 2.39. On the same count and under the same terms, with DCAGSPQKPLCASWGRTFLSRCEF the figure was 1.89; with DCAGSPQKELCASDGRTFLSRCEF, 2.72.

As for DCAGSPQKPLCASDGRTFLHRCEF, the protein stability index stood at 2.68.

With DCAGSPQKPLCASDGRTFCSRCEF, the protein stability index was determined as 3.85.

DCAGSPQKPLCASDGRTFFSRCEF: the protein stability index was 4.33. In the case of DCALSPQKPLCASDGRTFLSRCEF, the protein stability index was found to be 2.56. On the same count and under the same terms, the same measure for DCAGSPQKPLLASDGRTFLSRCEF: 3.3.

The variants in the next data set derive from B2. The data set is described as above. Particulars: c terminus: a fixed tail appended.
With NNSWIRKNSTMVNSEDITLLLCLK, the protein stability index came out at 1.83. Consider NNSWIRKNSTMVNSEDINLLLCLK, for which the protein stability index came out at 1.54. Regarding NNSWIRKNSTMVNSEDIGLLLCLK, the protein stability index was 1.51. The same measure, in the same setting: the same measure for NNSWIRKNSTMVNSEDIPLLLCLK: 1.85. NNSWIRKNSTMVNSEDIHLLLCLK: the protein stability index was determined as 2.42.

With NNSWIRKNSTMVNSEDIRLLLCLK, the protein stability index is 2.63.

In the case of NNSWIRKNSTMVNSEDIYLLLCLK, the protein stability index worked out at 4.65. With NNSWIRKNSTMVNSEDIVLLLCLK, the protein stability index amounted to 2.92. On to NNSWIRKNSTMVNSEDISLLLCLK, for which the protein stability index amounted to 1.64. Same read-out and setting: the same measure for NNSWIRKNSTMVNSEDIKLLLCLK: 2.23; for NNSWIRKNSTMVNSEDILLLLCLK: 2.54. Still for that read-out and setting: with NNSWIRKNSTMVNSEDIMLLLCLK the figure was 4.64; with NNSWIRKNSTMVNSEDIALLLCLK, 1.7. NNSWIRKNSTMVNSEDIDLLLCLK: the protein stability index amounted to 2.42. As for NNSWIRKNSTMVNSEDIILLLCLK, the protein stability index came out at 3.7. On the same count and under the same terms, with NNSWIRKNSTMVNSEDICLLLCLK the figure was 2.71; with NNSWIRKNSTMVNSEDIELLLCLK, 1.47; with NNSWIRKNSTMVNSEDIWLLLCLK, 2.46. Same read-out and setting: with NNSWIRKNSTMVNSEDIQLLLCLK the figure was 2.5; with NNSWIRKNSTMVNSEWIFLLLCLK, 3.2.

For the variant NNSWIRKNSTMVNSEQIFLLLCLK, the protein stability index was determined as 2.49. Same read-out and setting: with NNSWIRKNSTMVNSETIFLLLCLK the figure was 2.47.

Consider NNSWIRKNSTMVNSENIFLLLCLK, for which the protein stability index turned out to be 4.97. For the variant NNSWIRKNSTMVNSEPIFLLLCLK, the protein stability index was found to be 2.23.

With NNSWIRKNSTMVNSEMIFLLLCLK, the protein stability index is 2.45. In the case of NNSWIRKNSTMVNSERIFLLLCLK, the protein stability index worked out at 2.8. The same measure, in the same setting: with NNSWIRKNSTMVNSEVIFLLLCLK the figure was 2.92; with NNSWIRKNSTMVNSEYIFLLLCLK, 2.65; with NNSWIRKNSTMVNSELIFLLLCLK, 2.59. Take NNSWIRKNSTMVNSEKIFLLLCLK: the protein stability index came to 3.16. Same read-out and setting: with NNSWIRKNSTMVNSESIFLLLCLK the figure was 1.7. Same read-out and setting: with NNSWIRKNSTMVNSEDIFPLLCLK the figure was 1.95; with NNSWIRKNSTMVNSEDIFNLLCLK, 1.83; with NNSWIRKNSTMVNSEDIFRLLCLK, 1.7. On the same count and under the same terms, the same measure for NNSWIRKNSTMVNSEDIFSLLCLK: 1.63; for NNSWIRKNSTMVNSEDIFCLLCLK: 2.32. With NNSWIRKNSTMVNSEDIFDLLCLK, the protein stability index worked out at 2.01.

Turning to NNSWIRKNSTMVNSEDIFWLLCLK, the protein stability index came to 2.33. The same measure, in the same setting: the same measure for NNSWIRKNSTMVNSEDIFALLCLK: 2.25; for NNSWIRKNSTMVNSEDIFMLLCLK: 2.08. Take NNSWIRKNSTMVNSEDIFQLLCLK: the protein stability index was determined as 2.21. For the variant NNSWIRKNSTMVNSEDIFVLLCLK, the protein stability index came to 3.1. As to NNSWIRKNSTMVNSEDIFKLLCLK, the protein stability index stood at 1.54. Still for that read-out and setting: the same measure for NNSWIRKNSTMVNSEDIFILLCLK: 2.63; for NNSWIRKNSTMVNSEDIFHLLCLK: 1.7. Still for that read-out and setting: with NNSWIRKNSTMVNSEDIFYLLCLK the figure was 3.02. As for NNSWIRKNSTMVNSEDIFFLLCLK, the protein stability index stood at 2.07. Regarding NNSWIRKNSTMVNSEDIFTLLCLK, the protein stability index was determined as 1.69. On the same count and under the same terms, the same measure for NNSWIRKNSTMVNSEDIFGLLCLK: 1.8. On the same count and under the same terms, with NNSWIRKNSTMVNSEDIFELLCLK the figure was 1.79; with NNSWIRKNSTMVNSEDIFLLLCLH, 2.87; with NNSWIRKNSTMVNSEDIFLLLCLC, 2.79.

As to NNSWIRKNSTMVNSEDIFLLLCLP, the protein stability index was found to be 3.69. The same measure, in the same setting: with NNSWIRKNSTMVNSEDIFLLLCLI the figure was 2.33; with NNSWIRKNSTMVNSEDIFLLLCLW, 2.28.

On to NNSWIRKNSTMVNSEDIFLLLCLT, for which the protein stability index stood at 2.05.

For the variant NNSWIRKNSTMVNSEDIFLLLCLL, the protein stability index is 2.72. As for NNSWIRKNSTMVNSEDIFLLLCLN, the protein stability index turned out to be 2.86. Same read-out and setting: the same measure for NNSWIRKNSTMVNSEDIFLLLCLR: 3.57. As to NNSWIRKNSTMVNSEDIFLLLCLG, the protein stability index stood at 3.84. On the same count and under the same terms, with NNSWIRKNSTMVNSEDIFLLLCLM the figure was 3.1. On the same count and under the same terms, with NNSWIRKNSTMVNSEDIFLLLCLE the figure was 4.39; with NNSWIRKNSTMVNSEDIFLLLCLD, 3.92; with NNSWIRKNSTMVNSEDIFLLLCLQ, 3.08. The same measure, in the same setting: the same measure for NNSWIRKNSTMVNSEDIFLLLCLS: 3.16.

The record behind these values is the supplement of paper PMC10567573.
